Results on 47 sequences are retold here after the NTF2 design screens of Basanta et al. (2020).

This series in a line: protease stability score; higher = more stable; yeast display proteolysis, trypsin and chymotrypsin.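 Further: log10 excess protease needed over predicted unfolded state with 0 meaning unfolded.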
“DEEKEFHKMIKELDKVAKRNDEQSVQNLADKDVEVTYGDKSYHGREVLRRMFRDQLTRADKVRITMKSYTVRGDKAHAVLNVVLDHNGRQEHIDVKVTAQADNGRVRLKHVNIP” registered a protease stability score of -0.039.
“DEKELQKVLQKVMKLFQNGNIEELQKVVKDDVQLRYADKEYHGPDAVKTVVKRYRDLGAKVEYDELHVEGDKATAKVRADYGGTTVRMKVTYKVTGQKVDRMQVKYDEKAQKQIKHG” registered a protease stability score of -0.142.
The result for “DENTQKQIAKKVVDVIRNGDPKQLHDLFDPNARLNIGDRTYTGSKEFQKHAETLRRNVDHIQVKSIDVQGEHIHINMVLNVNGKQYNANFRVDVHNGKAKQMSVEYRDKEEYKTLKR” reads 0.362; that for “DETDTAKDFAEELRTIFESNDFKRYQQLFDPNAKIHVGEKRLHGDRRVNNLIKEIFDRADHLHFDLREFEVKGEKVRIRYVEKQKINGKDETRDVVMVAVKQGDKMYITEVRHQ”, 1.13; that for “DEHAFKRIDEMLTAFQKNDPNKIQEYMDENVKVQYGDKSVHGRDEIAKSKQETREHLRLEIRIENYDVNGDTIHVHAKVIFNVNGDPLKFEVDIVARLHNGKIKSMQLQFSHEQQKKVES”, 0.682.
“DEENLKKVREFLEHLVTGNEREVKHLMDPNAEMEVGDKKYSGTEQLRRLMQELKRHQTNKYDIKDMKVQGNKADLKAKVIERHNGQPDDTEQQFFATMSNGRFKKVSFRTDK” showed a protease stability score of -0.295.
In turn, “DDTDQAEKMMEKLKDAFDTGDEDQVLKLADKDVKVDVGDKSYHGKEEYLDLFRHWLKKVDHLRLEVKHVNQNGDEISVTAKLVLDNNGETTDHTLHLVARSVNGDVVLQSMNNG” yielded a protease stability score of 1.16.
The result for “DDDTDRKVAEDAWRAFEKGDHKRLIELMDKDAEVQVGNRRVSGREKAAHEMVRMVERADHISVKSIDIRGDKATIKFQVNVNGHNQEAKVVFRVQNGRVQEVKFDPTMEKALRT” reads 1.39; that for “DEHDAAKRAEEAVRRANSGDEKDALRLIDPNATVQVGDKNYHGREQVRRVVEELTERFDHIQFKHVSLQGNRVTARADATHNGRTEKMIFIVRAHNGRVKSWKIESS”, -0.093.
In turn, “DEERYKQLMEKAFKMIKQGNEEEARKLLKPDVEYHYADKTFRGEEAAQFIVKVVQKLGAEDHNQRQEVNGDTMKADFRYTQGDQTVQTKAEVIYKGDKATEARVEMSDEVKKVLDQG” returned a protease stability score of -0.052.
The result for “DEKRFTELAEKAFKIIMNGNEEEARKMGKPNVEYKYGDKEFEGEEAMQYAVQLVIKVGAEAKVRRMEVRGDTMRADFQYTLGDKTVQTTAQVQYEGDYAKKAENELSDEAKKIMHQG” reads 0.434; that for “DEEDMDEVEKAIRKNDPEKMRDLADENAKASVGDNQFHGRDNVENFMKHLTDHADHVQVDSVEKHNGRVVVNAQLDINGEQIQIVIRIDVHNGKIKRFSIEVRDEEAHHFMREMVS”, 0.895; that for “DEEDQHVAKEFFSAMLTNDTDKLRRLADPNVRAHIGDKVIHGKEQFVRHVHELVEHQRVQVDRMDLDVDGERVRVEMRHVNEENGQPNDRKAKNSMDIHNGEIKYVTIKTQS”, -0.437.
The result for “DQRDVEKIATKLSEVVRTGDPHEFAKMADPNAKVEVGDKSWRGHEEIRDWLKQITDEADSIHVDSVTAQGDKIDMTITVDFNGKRVQFDIKIQMENGRIKKMKLDPDQQRKLER” reads 1.04; that for “DETAQNLIKELNRAWNENNENQVAELMDPNAKLQIGNKVLTGRKQRMEEIRSQTHSMRLDYKYEDVKAKNGKVTANLRYVADVNGRPVDVTVSVKADVHNGVIVRLEVRLPPDVEEELKR”, 0.219.
The sequence “DEEQRLKQVFDTLVKAFEDNDEDQIRDMMDPNVTVRVGDKEVHGRDEVARRVVDERRKVDHVHNDIKDYRVRGNHLVMKIDQVFNHNGETRKQTATMVVKVHDGRAVVETLHYD” yielded a protease stability score of 1.09.
The result for “DSEAHELADTIMHALKHNNPDQLKEQFDPNVRVDIGNNRYHGREQFATEVIRTLREWRVEYKSFDQRNSGDKVDLRIRFVVNVNGRPHRYSVTVHLNFKDGRVKKMKVEMDPDQERKQTQ” reads 0.914; that for “DEHVSRNLLRVLKLMHKGNFEEVVNNMDPNARIKVGDKEVHGREKEQTKNRKKEKHMELKVDDYRFRDNNGQVEAEVDQKFTHDGQPRSERFKFRVEAHNGRIKKQSQKEDR”, 0.007; that for “DEDAVRNASTMVEAERRGDENTIQKMMDKHATVKYGDTEVHGREDAARQIRKTHREIRIQVDHYTVEAHNGRVRVEIRVVVNVNGTPYEYHYDYYAEVHNGKFKHIEINVDPDLEDKLKK”, -0.16.
With “DEDQARLAIRFMEAWLEGNEDELKNQADPNAHFQVGDKHVTGMDEAAKELKTQLTEIRWDYKSVRIDTEEGRANLDMTVRMEVNGKPVEHSQKIEVERHNGQLSVIDQQFDNDTWDEVKS” the figure was -0.393; with “DEKDMEQQDRVFRHGNEKKLEDLVDEDARVEVGNRRYHGREQVVRFFQQQVKQVDHRTIRSVKLTGDKFDAVLQVVINGQTYTYRFKAKVHNGKVKVLRVEFTDPQREKEFEKQLD”, 0.206.
The result for “DEKKLHELLLKMVQYYVSGHTEKVKEMGKDDVNLNAGDYTYHGVEQVATVADRMRQYGVKLEVKNRRQEGDRLEVEVEFHVGGQTVTVTFKVKADGGKVDEMRIDFSEEADKMARKG” reads -0.157; that for “DHEEMEKIAEEIIDILRTNDPDQMERLADENVRVRIGDKEVHGRESVSHAAQQLHDRVDHFDLKSWRRNGDKFQFEFVEHFNGQSRNVQVEMRFENGKIRHIVYTSR”, 0.226; that for “DEDARKQAQRWITNLNNGNEKEVSKQFDPNARMDVGNRDVHGTEQLLQKLRTRLKQARQSIELRDIDRQGDNLQLDVRMEFVHNGQPDDVRFTVQMNYHNGKIKRANWRIPEEDQKKLER”, 0.165.
“DETARHRLEEMWTNIQRNNPSEVAKLADKDVRVRVGDKEIHGREQLNHHIKRFNDEIRMNVDHISIKVDGNEADIHIRAEFEVNGTPFEMTIDVKISVHNGKIKEIDRQVSEEEKRRLKK” had a protease stability score of 0.806.
The result for “DEEKMEIVLNAFTAMATNNEEDIERLMDPNVKVTIGDTVIHGREQLQKNADRHRRSARINIKSMSAEVQGDTVRVVVNATREHNGRPQTFQLRAVAVAHNGKVKELNVEEKQ” reads 1.48; that for “DEQERAQEALRRFLRVFQEGDPDRARQQADKDVQMVVGDKEYEGREQVSRAIESLRERVDEFHITVRRITVSGNRVVVDAKLKLNINGKEDDVTLKLVIDVSGDKISIKRVEVR”, 1.12; that for “DEQEDRDMKKMYKNLQEGDDQRVADMADPNARWRVGDKTYHGKDSIRHWAKEVHDRMHFRIQSITVQNENGKVKVEIKWVTDENGKPVDQTVQVKAELHNGHIVDIDITTQS”, 0.731.
The sequence “DQDEIRQNARDLATGDPDRAREQADKHVRVEIGEKTLHGREKLEEWMKHIHERIDHNRVHDIQIDNGRVEASVNVDINGKKVVFTIVAEFDNGKIQRVQVDVRDHEVQKVMEEIDS” had a protease stability score of 0.821.
The result for “DEREKEHVEEFLRNWEEGNQDNLMRLADPNVRLQIGDHEIHGREQLAKHVDDERKQMRVSMQIKSVDAHNGRIHIQAERESQHDGNPTKESLVITFVLRNGRIQEVSYKRQQ” reads 0.959.
Turning to “DEDEDIRSWMKQFEEVVKTGDSKHAADMFDKNAKMQYGDKTYHGRDDVKSVLDHLLRRADHVRLELLDVKSNGESVHAVMLITFVVDGQTDSYHVELVFVVDNGRRNLHTATTK”, the protease stability score is 0.872.
In turn, “DEENRHVAQELVKAEKSGDPKRAQELLDPNVRINVGDKTVQGREQHTQELEREKRELRIRIKSMHLKVEGDHVRIEATVSKTQDGQPRESKRSISIHMKNGKAKNIQVTYHK” yielded a protease stability score of 0.13.
Regarding “DHDAVRQARELYKVWQTGDPDKVRNMLDPNVRFRIGDKEIRGRESFAEELITQIKQSHVEVRHYSANANGNNVKARANVVIHVNGRPHEFSFIFRARVENGKFKQISVQVDDDLLRKLES”, the protease stability score is 0.548.
With “DETHDAHRKAEEIITALRTGDPKQAESLVPENVKIDVGDKTIHGKEQYSKEFKKFTDRVDKVEVRIKHVHVQGDKIKIRMEARENVDGQDKRYQFVLIFDRHNGKDQAVSIKVD” the figure was 1.02; with “DEEVKRLAERILSALERGDPQQISDNFDPNARLEIGDKRIHGREELRKYVDTVRKTQRISIRSFRVSVHNGQVDIDIHFENEHNGDPDERRRSINIQASNGKAKNVVYQDNK”, -0.336; with “DEHDEARKFADKFVKALRDGDETLVNKLVDPNAKFVIGDKDYHGRKAASTLMHEWKNRVDEQEVKIKRISVRNGRANVDVEMVMNVDGHRVHFRVIIYAERRDGRLRVVRIEAR”, 1.52.
In the case of “DEEHAKRINENIKHGNWDELVKQFDENAKLVIGDKEYHGREEIKKAMDLFKKHADHFEIKSYDNQGEKMSATYVIQVNGKRATVKMRVTFQGDKVKRYELHATSEHNERILKEAIE”, the protease stability score is 1.12.
The result for “DHSEVTDVFRKLVKVLRTGDESTAAELFDEDVEFEIGDKTYKGREEAHDLLRQFQDMADHVQLNDVRVQGNKVHAEFRADVNGRELHFTQSAEVHNGKIKKVVIRFTNEEQYREIHS” reads 1.59; that for “DEDQNTVFEEVKKAIRTGDEEMLKTLMDPNVRLEYGDTEIHGREEAVRQISTRHNQLHVDEQIKDIKAHNGKVDVDFEVHRSHNGDPQHRRASARADVSNGSVKELVVKYDK”, 0.014.
With “DETKVKKLAETVIKILFSGDKKTAKDLLKPNVKFEALDVELHGPDQVRKYYDKVKKHGAEMHVQRNEVKGNTAEVEYVLKVGGTEIKVKATLYVKDEKVDKAEVNNSEEYKKYVQKG”, the protease stability score was -0.018.
“DEEAVEIAHEVNKALNENDEHRLRELFDPNAKIQYGDNVIKGSDNLVKDIRRKSKRMRVRFDVKSIDNQGDKVEIDANYRQTHDGEPRTRKVDAKLRVENGRIKHFSARFTP” returned a protease stability score of -0.044.
For “DEEANKIAKKFQEALRKGDENRLKELVDPNVRMEYGDHSIHGREELEKDVRKKKRDMRVKITLDHMEDNGSEVTAKVRWTQEHNGTPDSTHFSARFDFTDGRLKHYDQNDSG”, the protease stability score was -0.009.
Sequence “DDHLRREAKKMVKNYVKGDPDKVMEYVDPNATVNVGDKNIRGRESVREWVKTQKDQMRIQLTSMRVDASNGRVKISLDFRLNDNGKPDRVTVDIKLNMRNGRVQHVNIQTHK” had a protease stability score of 0.279.
With “DEDITEAVRRLEKAREDGDPNKVRELLPEDARAQYGDKTYHGRDEVAKYRETEMKQMTVQMNIRSVENHNGRADIEFEVTREHNGKPTHDHNRATILAHNGKIKVIEIHSTK”, the protease stability score is -0.422.
On to “DEDASRRMIEMVENLQTGNEEEFKKYVDPNVRIEYGDKRVSGRDQATKWWRSEFTEIRFSMRVQSYSVDGNKVDITVRATFDHNGKPEDKKYKLDIQLHNGHIKKLEITDDS”, for which the protease stability score is 1.31.
For the sequence “DEHKQQERAEDAVRVMQKGDERRFHEQLDENVRVTIGDREVHGRENAVEMFQEWVKRADHIRVDKLEVSNGVVNAHFEVEHNGQTRHQVMVVTYHNGEIQHMTIDRG”, the protease stability score turned out to be 0.741.
As to “DEDEERDFEEMWKVFHKGNPDDYKKMIDKDVEIRIGDKTVHGREEIVRQVHHEMNNINFQLQSVDIRVTNGRVEIDVRYVSNVNGRPDTIRYTYHASASNGKLKTAEYRISEDQQNRHRR”, the protease stability score is -0.273.
